This data set deals with SupT1-GD2 cells. Nature of the data set: Effect of inhibitory ligand expression on GD2 CAR cytotoxicity. To be noted: ligand expressed on SupT1-GD2, E:T 1:4 and 1:8, 6 days. Format: cell-based. How it is done: Transduced T cells were depleted of CD56 cells using the EasySep Human CD56 positive selection kit (Stemcell Technologies; 17855) and rested for 24 hours. Transduced cells were co-cultured with target cells at the indicated effector: target (E:T) ratios with target cells remaining constant at the indicated number of target cells/co-culture. At the end of the co-culture period target cells were enumerated by flow cytometry and cytotoxicity calculated as a percentage of the number of target cells recovered from co-cultures with non-transduced (NT) T cells.
Figure 3 Interaction of dSHP2 with immunoinhibitory T cell receptors. (A-E) Binding of dSHP2 to phosphorylated peptides derived from the endodomains of immunoinhibitory T cell receptors. Plates were coated with phosphorylated or non-phosphorylated peptide at the indicated concentration and the purified, His-tagged SH2 domains of dSHP2 were allowed to bind overnight. Binding was measured through detection of the His tag. (F) Effect of inhibitory ligand expression on target cells on CAR T cytotoxicity. […] Supernatants were harvested from these co-cultures and levels of IFNγ measured by ELISA (I). […] Statistical significance was measured by two-way ANOVA. […]

The record followed here is publication PMC10272835, “Exploration of T cell immune responses by expression of a dominant-negative SHP1 and SHP2” (Frontiers in Immunology, 2023).

B1: CD155: inhibitory ligand of TIGIT expressed on SupT1-GD2 cells (protein, UniProt P15151 21-417, looked up)
Poliovirus receptor: WPPPGTGDVVVQAPTQVPGFLGDSVTLPCYLQVPNMEVTHVSQLTWARHGESGSMAVFHQTQGPSYSESKRLEFVAARLGAELRNASLRMFGLRVEDEGNYTCLFVTFPQGSRSVDIWLRVLAKPQNTAEVQKVQLTGEPVPMARCVSTGGRPPAQITWHSDLGGMPNTSQVPGFLSGTVTVTSLWILVPSSQVDGKNVTCKVEHESFEKPQLLTVNLTVYYPPEVSISGYDNNWYLGQNEATLTCDARSNPEPTGYNWSTTMGPLPPFAVAQGAQLLIRPVDKPINTTLICNVTNALGARQAELTVQVKEGPPSEHSGISRNAIIFLVLGILVFLILLGIGIYFYWSKCSREVLWHCHLCPSSTEHASASANGHVSYSAVSRENSSSQDPQTEGTR
For the molecule B1, the “effect of target cell ligand expression on CAR T cytotoxicity” value is recorded as “mild enhancement of CAR T cytotoxicity”.

B2: HVEM: inhibitory ligand of BTLA expressed on SupT1-GD2 cells (protein, UniProt Q92956 39-283, looked up)
Tumor necrosis factor …: LPSCKEDEYPVGSECCPKCSPGYRVKEACGELTGTVCEPCPPGTYIAHLNGLSKCLQCQMCDPAMGLRASRNCSRTENAVCGCSPGHFCIVQDGDHCAACRAYATSSPGQRVQKGGTESQDTLCQNCPPGTFSPNGTLEECQHQTKCSWLVTKAGAGTSSSHWVWWFLSGSLVIVIVCSTVGLIICVKRRKPRGDVVKVIVSVQRKRQEAEGEATVIEALQAPPDVTTVAVEETIPSFTGRSPNH
For the molecule B2, the “effect of target cell ligand expression on CAR T cytotoxicity” value is reported as “mild enhancement of CAR T cytotoxicity”.
